Assays:
cynomolgus PRLR ECD = target: T1, cynomolgus PRLR ECD (Macaca fascicularis, UniProt A0A2K5WXK1); assay: Biacore kinetic titration, antibody captured on Protein A/G; assay type: binding; conditions: Table 9, Cyno PRLR ECD; unit not given
T1 construct: antibodies against human and cynomolgus PRLR ECD
T1 sequence (A0A2K5WXK1 25-234): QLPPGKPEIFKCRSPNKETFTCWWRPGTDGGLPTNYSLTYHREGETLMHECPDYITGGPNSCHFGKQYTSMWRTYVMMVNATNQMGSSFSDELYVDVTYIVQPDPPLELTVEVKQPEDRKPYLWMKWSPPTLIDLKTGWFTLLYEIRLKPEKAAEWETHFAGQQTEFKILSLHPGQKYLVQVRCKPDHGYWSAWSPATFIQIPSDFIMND
Method: (§1) Affinity of the chimerized and HUMAN ENGINEERED™ antibodies determined by Biacore analysis. Briefly, a CM5 sensor chip (Biacore) immobilized with Protein A/G (Pierce) via NHS/EDC was used to capture approximately 600 RU of antibody on the chip surface. Five concentrations of PRLR ECD beginning at 5 ug/mL (185 nM) and serially diluted at 5× dilution to 0.3 nM were injected from lowest to highest concentration in the kinetic titration injection mode, and 15 minutes of dissociation data was collected. The experiments were double-referenced, i.e. an adjacent flow cell response was subtracted automatically, and the response from a buffer injection experiment was subtracted from the experimental data set. Kinetic and derived parameters (ka, kd and KD) were determined by fitting to a 1:1 Langmuir model using BiaEval software customized to the kinetic titration injection mode. Affinity measurements of both chimeric and all HUMAN ENGINEERED™ antibodies against human and cynomolgus PRLR ECD are summarized in Table 9 and Table 10.

human PRLR ECD = target: T2, human PRLR ECD (Homo sapiens, UniProt P16471); assay: as above; assay type: binding; conditions: Table 9, Human PRLR ECD; unit not given
T2 construct: His6 (C); made in house; host or cells: Tn5 insect cells, baculovirus
T2 sequence (P16471 25-234): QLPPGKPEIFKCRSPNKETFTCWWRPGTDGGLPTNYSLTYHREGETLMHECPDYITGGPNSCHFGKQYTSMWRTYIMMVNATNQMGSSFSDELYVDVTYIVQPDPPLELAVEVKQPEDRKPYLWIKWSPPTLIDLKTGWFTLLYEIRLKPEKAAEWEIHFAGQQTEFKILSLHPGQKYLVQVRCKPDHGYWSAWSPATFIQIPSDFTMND
Method: as §1

Cyno PRLR = target: T3, Cyno PRLR (Macaca fascicularis, UniProt A0A2K5WXK1); assay: Cross species affinity analysis on covalently immobilized antibodies; assay type: binding, cynomolgus; conditions: Table 11, Cyno; covalently immobilized antibody; in 1/s
T3 construct: antibodies against human and cynomolgus PRLR ECD
T3 sequence (A0A2K5WXK1 25-234): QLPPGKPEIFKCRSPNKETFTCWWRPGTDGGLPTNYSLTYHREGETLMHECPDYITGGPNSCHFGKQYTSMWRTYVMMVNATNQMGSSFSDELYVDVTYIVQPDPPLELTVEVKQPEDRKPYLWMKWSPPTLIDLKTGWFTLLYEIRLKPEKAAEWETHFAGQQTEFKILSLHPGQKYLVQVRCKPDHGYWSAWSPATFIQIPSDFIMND
Method: (§2) In order to compare rat and mouse cross reactivity using covalently immobilized antibodies, a CM4 chip was coupled with he.06.642-2 and he.06.275-4 antibodies via standard EDC-NHS amine coupling chemistries according to the recommended protocol from BIACORE® Inc. The PRLR ECD injections were performed at five concentrations in a three fold titration series starting at 111 nM and going down to 1.37 nM. Regeneration was performed with Glycine pH3.0. The affinity of all of the HE variants of XHA.06.642 and XHA.06.275 are very similar to the affinity of the parental chimeric antibody. […] Antibody he.06.275-4 binds to Cyno PRLR with 5 fold weaker affinity than Human PRLR.

Human PRLR = target: T4, Human PRLR (Homo sapiens, UniProt P16471); assay: as above; assay type: binding; conditions: Table 11, Human; covalently immobilized antibody; in 1/s
T4 construct: His6 (C); made in house; host or cells: Tn5 insect cells, baculovirus
T4 sequence (P16471 25-234): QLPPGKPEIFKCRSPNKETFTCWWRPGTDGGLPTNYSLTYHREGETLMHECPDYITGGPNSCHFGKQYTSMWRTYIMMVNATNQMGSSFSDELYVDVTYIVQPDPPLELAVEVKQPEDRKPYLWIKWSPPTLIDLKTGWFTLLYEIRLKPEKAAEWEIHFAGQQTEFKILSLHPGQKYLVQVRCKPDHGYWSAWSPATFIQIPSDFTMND
Method: as §2

Mouse PRLR = target: T5, Mouse PRLR (Mus musculus, UniProt Q08501); assay: as above; assay type: binding; conditions: for binding to Mouse PRLR (in words): compared with human PRLR
T5 sequence (Q08501 20-229 limits assumed): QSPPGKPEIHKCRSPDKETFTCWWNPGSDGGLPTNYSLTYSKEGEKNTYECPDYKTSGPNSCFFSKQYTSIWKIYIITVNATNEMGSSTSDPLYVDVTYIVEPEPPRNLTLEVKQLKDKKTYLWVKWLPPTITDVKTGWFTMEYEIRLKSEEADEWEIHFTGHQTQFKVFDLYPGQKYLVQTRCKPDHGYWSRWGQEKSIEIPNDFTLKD
Method: as §2

Rat PRLR = target: T6, Rat PRLR (Rattus norvegicus, UniProt P05710); assay: as above; assay type: binding; conditions: for binding to Rat PRLR (in words): compared with human PRLR
T6 sequence (P05710 20-229 limits assumed): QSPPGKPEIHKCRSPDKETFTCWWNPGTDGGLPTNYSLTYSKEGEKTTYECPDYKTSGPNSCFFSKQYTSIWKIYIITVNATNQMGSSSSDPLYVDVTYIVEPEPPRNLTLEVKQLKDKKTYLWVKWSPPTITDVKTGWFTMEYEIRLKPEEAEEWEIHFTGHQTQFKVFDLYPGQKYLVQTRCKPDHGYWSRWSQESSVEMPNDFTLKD
Method: as §2

[1] = test system: PRL-induced phospho-PRLR and phospho-Stat5; assay: PRL-induced PRLR and STAT5 phosphorylation in T47D cells by Western blot; assay type: cell-based, human; conditions: for agonism: induction of PRLR signaling by antibody alone: T47D cells treated with mAb alone; for block of PRL-induced signaling (phospho-PRLR, phospho-Stat5): T47D cells, 1 or 10 ug/ml mAb, then PRL 50 ng/ml 30 min
Method: Cells were pre-treated with 1 ug/ml mAb prior to 30 min stimulation with 50 ng/ml PRL. Lysates were analyzed for the presence of phospho-PRLR using antibodies specific for phosphotyrosine residues 546 and 611 of the PRLR.
T47D cells were incubated with 1 or 10 ug/ml mAb, then treated with or without PRL (50 ng/ml) for an additional 30 min.
The ability of selected antibodies to inhibit PRL-induced phosphorylation of STAT5 and AKT was determined as follows. Cells were seeded overnight in 6 well plates at a density of 3×10^5 cells/ml in phenol red-free RPMI/10% FBS. The following day, media was replaced with serum-free RPMI for 30 min. In some experiments, anti-PRLR or non-specific control antibodies were incubated with cells during this serum starvation period. 50 ng/ml PRL was then added to wells for 30 min, after which cells were rinsed once in PBS and lysed in a buffer consisting of 50 mM Tris-HCl, pH7.5, 150 mM NaCl, 1 mM EDTA, 1% NP-40, 1 mM Na3OV4, 50 mM NaF, 0.25% deoxycholate and protease inhibitors. Tubes were spun down at 14,000 rpm in a refrigerated microfuge and lysates were quantitated using BCA reagents. 30 μg of whole cell lysate was separated by 10% SDS-PAGE and proteins were detected using phospho-specific antibodies for STAT5A/B (Y694/Y699, Upstate) or PRLR (Y546/Y611, in-house) and ECL. Equal protein loading was determined by staining with antibodies specific for total STAT5 (BD) or PRLR (Zymed) or AKT (Cell Signalling). Results of a representative assay of effect of a PRLR-specific antibody on PRLR intracellular phosphorylation are shown in FIG. 6.
Chimeric mAbs were analyzed for their ability to inhibit the proliferation and survival of BaF/PRLR cells [FIG. 11]. […] In order to assess the PRLR signal-neutralizing capability of the chimeric antibodies in a human breast cancer model, T47D cells were treated with 1 ug/ml mAb for 30 min prior to PRL stimulation. At the same time, additional cell samples were incubated with antibody alone to examine any potential agonism gained through chimerization of the antibody candidates.
Antibodies were assessed in target modulation and cell proliferation assays. FIG. 16 depicts the effect of 2 concentrations of chXHA.06.642 and HUMAN ENGINEERED™ antibodies he.06.642-1 and he.06.642-2, on PRL-induced Stat5 phosphorylation in T47D cells. […] Similar results were found for chXHA.06.275 variants.

[2] = Solubility in PBS and aggregation state by size exclusion chromatography; assay type: physicochemical
Method: Elution of the major peak was by […] glycine pH 3.5. Pooled material was dialyzed into PBS and concentrated in centrifugal concentrators with a nominal molecular weight cut-off of 30 kD. Final purities were >95% and overall yields were approximately 60%. The final pools were assayed for endotoxin using an Endosafe PTS LAL unit (Charles River) or the QCL-1000 Chromogenic LAL Endpoint Assay (Lonza), and the results were <0.05 EU/mg (below the limit of detection) for all the antibodies. Aggregation state of the chimeric antibody he.06.642-2 was determined to be monomeric by SEC on a Superdex 200 10/300 GL column (GE Healthcare).

B1: he.06.642-2: HUMAN-ENGINEERED antibody from XHA.06.642; variable regions SEQ ID NO: 88 and SEQ ID NO: 90 by order of listing (antibody, V domains shown)
VH: EVQLVESGGGLVQPGGSLRLSCAVSGFTFSSYGMSWVRQAPGKGLEWVATVSSGGTYTYYPDSVKGRFTISRDNSKNTLYLQMNSLRAEDTAVYYCARHRGNYYATYYYAMDYWGQGTLVTVSS
VL: DIVLTQSPDSLAVSLGERATINCKASKSVSTSGYTYMHWYQQKPGQPPKLLIYLASNRESGVPDRFSGSGSGTDFTLTISPVQAEDVATYYCQHSGELPPSFGQGTKLEIK
ka (cynomolgus PRLR ECD): 1.8E+05
kd (cynomolgus PRLR ECD): 8.3E−03
ka (human PRLR ECD): 1.7E+05
kd (human PRLR ECD): 5.3E−04
koff (Cyno PRLR): 6.0E−03
koff (Human PRLR): 9.1E−04
Murine KD/Human KD (Mouse PRLR): Murine KD/Human KD = 1
koff (Mouse PRLR; Table 11, Murin, covalently immobilized antibody, in 1/s): 3.1E−04
binding to Mouse PRLR (in words) (Mouse PRLR): equivalent affinity
Rat KD/Human KD (Rat PRLR): Rat KD/Human KD = 0.75
koff (Rat PRLR; Table 11, Rat, covalently immobilized antibody, in 1/s): 1.4E−04
binding to Rat PRLR (in words) (Rat PRLR): equivalent affinity
agonism: induction of PRLR signaling by antibody alone [1]: neither antibody displayed any agonistic activity
block of PRL-induced signaling (phospho-PRLR, phospho-Stat5) [1]: complete p-Stat5 signal abrogation
aggregation state by size exclusion chromatography [2]: monomeric

B2: he.06.642-1: HUMAN-ENGINEERED antibody from XHA.06.642; variable regions SEQ ID NO: 88 and SEQ ID NO: 89 by order of listing (antibody, V domains shown)
VH: EVQLVESGGGLVQPGGSLRLSCAVSGFTFSSYGMSWVRQAPGKRLEWVATVSSGGTYTYYPDSVKGRFTISRDNSKNTLYLQMNSLRAEDTAMYYCARHRGNYYATYYYAMDYWGQGTLVTVSS
VL: DIVLTQSPDSLAVSLGERATINCKASKSVSTSGYTYMHWYQQKPGQPPKLLIYLASNRESGVPDRFSGSGSGTDFTLTISPVQAEDVATYYCQHSGELPPSFGQGTKLEIK
ka (cynomolgus PRLR ECD): 1.2E+05
kd (cynomolgus PRLR ECD): 3.8E−03
ka (human PRLR ECD): 1.7E+05
kd (human PRLR ECD): 3.5E−04
agonism: induction of PRLR signaling by antibody alone [1]: neither antibody displayed any agonistic activity
block of PRL-induced signaling (phospho-PRLR, phospho-Stat5) [1]: complete p-Stat5 signal abrogation

B3: he.06.275-4: HUMAN-ENGINEERED antibody from XHA.06.275; variable regions SEQ ID NO: 92 and SEQ ID NO: 94 by order of listing (antibody, V domains shown)
VH: QVQLQESGPGLVKPSQTLSLTCTVSGYSITSDYAWNWIRQFPGKGLEWMGYISYSGSTSYNPSLKSRITISRDTSKNQFSLQLNSVTAADTAVYFCARDYGYVFDYWGQGTTLTVSS
VL: DVQITQSPSSLSASPGDRITLTCRASKNIYKYLAWYQEKPGKANKLLIYSGSTLHSGIPSRFSGSGSGTDFTLTISSLQPEDFAMYYCQQHNDYPYTFGQGTKLEIK
ka (cynomolgus PRLR ECD): 3.6E+05
kd (cynomolgus PRLR ECD): 6.0E−04
ka (human PRLR ECD): 6.2E+05
kd (human PRLR ECD): 3.2E−04
koff (Cyno PRLR): 8.2E−04
koff (Human PRLR): 4.5E−04
Murine KD/Human KD (Mouse PRLR): Murine KD/Human KD = 13,548
binding to Mouse PRLR (in words) (Mouse PRLR): does not bind effectively
binding to Rat PRLR (in words) (Rat PRLR): does not bind effectively

From US9005614B2, “PRLR-specific antibody and uses thereof” (Novartis AG, priority 2006, dated 2015)
